Read-outs that look alike come from different tables or passages of the source.
T1: IL-18 receptor (IL-18Rα and IL-18Rβ) (UniProt Q13478 19-541; O95256 20-599, limits assumed)
T1 sequence (looked up) 1: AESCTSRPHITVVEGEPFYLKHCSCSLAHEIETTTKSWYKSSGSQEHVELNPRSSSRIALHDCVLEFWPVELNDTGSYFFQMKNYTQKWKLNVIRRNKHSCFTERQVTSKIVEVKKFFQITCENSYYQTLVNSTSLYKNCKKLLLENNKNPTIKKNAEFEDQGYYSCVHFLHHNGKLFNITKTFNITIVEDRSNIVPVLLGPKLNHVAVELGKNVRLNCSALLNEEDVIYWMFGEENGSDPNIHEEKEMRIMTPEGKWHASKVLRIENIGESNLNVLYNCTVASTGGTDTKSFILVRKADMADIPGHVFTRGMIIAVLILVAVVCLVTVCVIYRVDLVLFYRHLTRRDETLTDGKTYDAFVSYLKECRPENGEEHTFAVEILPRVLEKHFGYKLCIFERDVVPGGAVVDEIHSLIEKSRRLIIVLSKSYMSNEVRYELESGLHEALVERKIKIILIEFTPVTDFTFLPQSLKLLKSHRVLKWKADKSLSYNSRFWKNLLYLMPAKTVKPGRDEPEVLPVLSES
T1 sequence (looked up) 2: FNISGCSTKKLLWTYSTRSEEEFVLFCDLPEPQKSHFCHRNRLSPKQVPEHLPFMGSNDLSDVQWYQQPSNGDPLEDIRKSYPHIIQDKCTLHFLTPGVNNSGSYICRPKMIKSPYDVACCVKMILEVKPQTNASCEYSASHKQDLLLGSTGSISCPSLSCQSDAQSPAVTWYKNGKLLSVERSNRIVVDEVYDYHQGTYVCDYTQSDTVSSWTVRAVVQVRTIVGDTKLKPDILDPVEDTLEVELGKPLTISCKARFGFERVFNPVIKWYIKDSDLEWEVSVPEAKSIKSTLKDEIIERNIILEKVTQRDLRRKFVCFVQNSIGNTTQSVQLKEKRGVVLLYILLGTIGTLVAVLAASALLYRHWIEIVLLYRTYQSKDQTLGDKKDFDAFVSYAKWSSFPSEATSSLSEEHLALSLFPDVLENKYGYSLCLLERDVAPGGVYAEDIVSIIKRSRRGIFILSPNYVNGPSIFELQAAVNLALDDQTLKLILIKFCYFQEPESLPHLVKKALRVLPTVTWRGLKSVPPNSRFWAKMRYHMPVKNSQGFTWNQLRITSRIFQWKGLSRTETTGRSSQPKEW

T2: interleukin 18 binding protein (IL-18BP) (UniProt O95998 31-194)
T2 sequence (looked up): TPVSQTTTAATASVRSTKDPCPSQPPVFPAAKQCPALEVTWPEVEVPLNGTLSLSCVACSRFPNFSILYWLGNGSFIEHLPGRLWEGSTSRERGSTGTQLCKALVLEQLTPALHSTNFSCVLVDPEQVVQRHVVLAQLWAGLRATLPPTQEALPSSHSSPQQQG

T3: human IL-18 binding protein (human, UniProt O95998 31-194)
T3 sequence (looked up): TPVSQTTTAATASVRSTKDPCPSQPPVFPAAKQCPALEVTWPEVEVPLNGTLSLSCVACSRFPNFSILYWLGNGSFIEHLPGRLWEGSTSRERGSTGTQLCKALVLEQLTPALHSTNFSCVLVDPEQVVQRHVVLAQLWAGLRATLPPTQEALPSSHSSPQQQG

T4: IL-18 receptors on HEK-Blue IL-18 reporter cells (UniProt Q13478 19-541; O95256 20-599, limits assumed)
T4 sequence (looked up) 1: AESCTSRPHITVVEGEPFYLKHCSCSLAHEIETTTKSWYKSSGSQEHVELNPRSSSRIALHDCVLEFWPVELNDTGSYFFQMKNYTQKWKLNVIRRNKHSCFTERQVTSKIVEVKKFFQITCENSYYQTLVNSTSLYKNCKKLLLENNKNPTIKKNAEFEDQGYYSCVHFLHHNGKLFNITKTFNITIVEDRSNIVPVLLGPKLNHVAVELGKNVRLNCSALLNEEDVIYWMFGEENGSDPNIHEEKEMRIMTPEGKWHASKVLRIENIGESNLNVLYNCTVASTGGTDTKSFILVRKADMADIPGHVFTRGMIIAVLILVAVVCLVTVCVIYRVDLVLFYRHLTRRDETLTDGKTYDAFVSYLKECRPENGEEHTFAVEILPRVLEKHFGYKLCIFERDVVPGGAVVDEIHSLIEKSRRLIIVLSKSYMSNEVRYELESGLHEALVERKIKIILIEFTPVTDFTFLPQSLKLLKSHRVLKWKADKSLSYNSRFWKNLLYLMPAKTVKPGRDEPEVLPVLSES
T4 sequence (looked up) 2: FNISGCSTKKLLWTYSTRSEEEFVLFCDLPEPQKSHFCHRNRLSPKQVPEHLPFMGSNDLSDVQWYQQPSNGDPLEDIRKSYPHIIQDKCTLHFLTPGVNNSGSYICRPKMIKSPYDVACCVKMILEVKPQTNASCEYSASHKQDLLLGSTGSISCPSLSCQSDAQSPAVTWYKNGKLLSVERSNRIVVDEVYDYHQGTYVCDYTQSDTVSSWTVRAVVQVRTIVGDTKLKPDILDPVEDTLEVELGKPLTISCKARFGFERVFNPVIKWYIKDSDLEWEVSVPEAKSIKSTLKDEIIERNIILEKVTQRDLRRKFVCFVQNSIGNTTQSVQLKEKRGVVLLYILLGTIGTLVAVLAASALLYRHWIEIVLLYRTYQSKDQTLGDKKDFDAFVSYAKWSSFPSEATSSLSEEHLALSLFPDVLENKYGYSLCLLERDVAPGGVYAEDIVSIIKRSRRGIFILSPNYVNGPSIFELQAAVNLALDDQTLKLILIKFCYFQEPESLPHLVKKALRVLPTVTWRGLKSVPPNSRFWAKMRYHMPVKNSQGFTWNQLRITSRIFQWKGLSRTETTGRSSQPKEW

T5: mouse IL-18 binding protein (mouse, UniProt Q9Z0M9 29-193)
T5 construct: also called Mouse IL18BP; Mouse IL-18BP
T5 sequence (looked up): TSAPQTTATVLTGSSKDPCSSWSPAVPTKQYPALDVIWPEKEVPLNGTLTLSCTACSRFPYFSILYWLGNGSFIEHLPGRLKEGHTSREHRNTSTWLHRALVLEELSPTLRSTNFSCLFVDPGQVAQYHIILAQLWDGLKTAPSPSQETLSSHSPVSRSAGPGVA

T6: mouse IL-18 receptor alpha (mouse, UniProt Q61098 20-326, limits assumed)
T6 construct: also called Mouse IL18Ra; mouse IL-18R alpha
T6 sequence (looked up): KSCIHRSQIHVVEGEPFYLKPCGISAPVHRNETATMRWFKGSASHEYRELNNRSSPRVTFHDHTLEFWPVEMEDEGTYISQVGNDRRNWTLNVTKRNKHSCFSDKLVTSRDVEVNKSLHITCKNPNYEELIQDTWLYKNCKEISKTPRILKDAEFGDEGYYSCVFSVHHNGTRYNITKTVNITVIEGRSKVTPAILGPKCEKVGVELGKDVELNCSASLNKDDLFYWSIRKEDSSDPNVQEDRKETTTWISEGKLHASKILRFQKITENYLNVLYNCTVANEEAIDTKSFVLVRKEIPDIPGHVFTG


Columns and labels:
[1] = target: T1, IL-18 receptor (IL-18Rα and IL-18Rβ); test: cell-based or functional assay
[2] = target: T2, interleukin 18 binding protein (IL-18BP); test: cell-based or functional assay
[3] = target: T3, human IL-18 binding protein; test: cell-based or functional assay
[4] = target: T4, IL-18 receptors on HEK-Blue IL-18 …; test: cell-based or functional assay
[5] = target: T3, human IL-18 binding protein; test: cell-based or functional assay; remark: listed apart in the source
[6] = target: T4, IL-18 receptors on HEK-Blue IL-18 …; test: cell-based or functional assay; remark: listed apart in the source
[7] = target: T5, mouse IL-18 binding protein; test: Octet BLI, monoFc scaffold
Method: (§1) Octet 96red instrument was used to determine affinities of IL18 proteins to BP or receptors. 5-10 ug/ml analyte proteins were used for loading on Sartorius tips (AHC or SA). […] 120-180 s loading, 200 s association and 800 s dissociation were used for kinetics. 3-7 data points were used to calculate affinities.
(§2) Several mouse variants were next tested for binding affinity to mouse IL-18R alpha and mouse IL-18BP.

[8] = target: T6, mouse IL-18 receptor alpha; test: Octet BLI, monoFc scaffold
Method: as §1, §2

Row | Binder | HEK-blue EC50 (pM) + 300 nM BP [3] [pM] | HEK-blue EC50 (pM) - BP [4] [pM] | HEK-blue EC50 (pM) + 1000 nM BP [5] [pM] | HEK-blue EC50 (pM) - BP [6] [pM] | binding result [7] | Kd [8] [nM] | further results
1 | IL-18 variant G3Q, E6H, K53T, D54S, S55Y, N91Y, R104K (ligand) YFQKLHSKLSVIRNLNDQVLFIDQGNRPLFEDMTDSDMRDNAPRTIFIISMYTSYQPRGMAVTISVKSEKISTLSSENKIISFKEMNPPDYIKDTKSDIIFFQKSVPGHDNKMQFESSSYEGYFLASEKERDLFKLILKKEDELGDRSIMFTVQNED |  |  |  |  |  |  | EC50 (pM) - BP, HEK-blue re-screening [1]: 2.63 pM; EC50 (pM) + 300 nM BP, HEK-blue re-screening [2]: 4.69 pM; Ratio (HEK-blue EC50, + 300 nM BP against - BP) [2]: 1.8
2 | human IL-18 variant G3V/E6K/K53A (ligand) YFVKLKSKLSVIRNLNDQVLFIDQGNRPLFEDMTDSDMRDNAPRTIFIISMYADSQPRGMAVTISVKSEKISTLSSENKIISFKEMNPPDNIKDTKSDIIFFQRSVPGHDNKMQFESSSYEGYFLASEKERDLFKLILKKEDELGDRSIMFTVQNED | 1.68 | 0.038 | 1.26 | 0.05 |  |  | 
3 | human IL-18 variant G3V/M60K (ligand) YFVKLESKLSVIRNLNDQVLFIDQGNRPLFEDMTDSDMRDNAPRTIFIISMYKDSQPRGKAVTISVKSEKISTLSSENKIISFKEMNPPDNIKDTKSDIIFFQRSVPGHDNKMQFESSSYEGYFLASEKERDLFKLILKKEDELGDRSIMFTVQNED | 0.507 | 0.042 | 1.05 | 1.43 |  |  | 
4 | Comparator 5 on monoFc scaffold (Fc fusion, not shown: small tags and cut ends) HFGRLHCTTAVIRNINDQVLFVDKRQPVFEDMTDIDQSASEPQTRLIIYAYGDSRARGKAVTLSVKDSKMSTLSCKNKIISFEEMDPPENIDDIQSDLIFFQKRVPGHNKMEFESSLYEGHFLACQKEDDAFKLILKKKDENGDKSVMFTLTNLHQSNGGPSVFLFPPKPKDTLMISRTPEVTCVVVDVSHEDPEVKFNWYVDGVEVHNAKTKPREEQYNSTYRVVSVLTVLHQDWLNGKEYKCKVSNKALPAPIEKTISKAKGQPREPQVYTLPPSREEMTKNQVNLTCLVKGFYPSDIAVEWESNGQPENNYKTTPPVLDSDGSFFLNSTLTVDKSRWQQGNVFSCSVMHEALHNHYTQKSLSLS |  |  |  |  | no binding | 1.27 | 
5 | mouse IL-18 G3V/H6K/L59K on monoFc scaffold (Fc fusion, not shown: small tags and cut ends) NFVRLKSTTAVIRNINDQVLFVDKRQPVFEDMTDIDQSASEPQTRLIIYMYKDSEVRGKAVTLSVKDSKMSTLSSKNKIISFEEMDPPENIDDIQSDLIFFQKRVPGHNKMEFESSLYEGHFLASQKEDDAFKLILKKKDENGDKSVMFTLTNLHQSNGGPSVFLFPPKPKDTLMISRTPEVTCVVVDVSHEDPEVKFNWYVDGVEVHNAKTKPREEQYNSTYRVVSVLTVLHQDWLNGKEYKCKVSNKALPAPIEKTISKAKGQPREPQVYTLPPSREEMTKNQVNLTCLVKGFYPSDIAVEWESNGQPENNYKTTPPVLDSDGSFFLNSTLTVDKSRWQQGNVFSCSVMHEALHNHYTQKSLSLS |  |  |  |  | no binding | 24.2 | 
